In the nanobody polyreactivity screen of Harvey et al. (2022):

Assay: yeast display, Sf9 membrane polyspecificity reagent, FACS + sequencing; frameworks hold sequencing errors
How it was run: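 A nanobody's polyreactivity label depends on the gate it was sorted from. Yeast display cells were stained with 10% biotinylated, detergent-solubilized Sf9 membrane reagent for 1 hour at 4 °C, enriched on streptavidin microbeads and sorted by FACS. The low and high (top ~1%) gates were set on anti-HA fluorescence for expression and streptavidin fluorescence for reagent binding.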

With “QVQLVESGGGLVQAGGSLRISCAASGSIFTANSMGWYRQAPGKERELVAAITWSGGSTYYADSVKGRFTISRDNAKNTVYLQMNSLKPEDPAVYYCAALPLYLGPKRLGYWGQGTQVTVSS” as the sequence, how does the “polyreactivity (PSR sort gate)” value read?
Its value is “high polyreactivity”.

With “QVQLVESGGGLVQAGGSLRISCAASGSIFVHYSMGWYRQAPGKEREFVAAISRGGGTTYYADSVKGRFTISRDNAKNTVYLQMNSLKPEDTAVYYCSARPSTDEGHRQSGLDYWGQGTQVTVSS” as the sequence, how does the “polyreactivity (PSR sort gate)” value read?
Its value is “high polyreactivity”.

With “QVQLVESGGGLVQAGGSLRISCAASGSIFYLYTIGWYRQAPGKERELVAAITSGGSTNYADSVKGRFTISRDNAKNTVYLQMNSLKPEDTAVYYCAAEYFDWWVTYDYWGQGTQVTVSS” as the sequence, how does the “polyreactivity (PSR sort gate)” value read?
The value was “high polyreactivity”.

For “QVQLVESGGGLVQAGGSLRISCAASGSIFYPYAMGWYRQAPGKERELVAGITYRAGSTYYADSVKGRFTISRDNAKNTVYLQMNSLKPEDTAVYYCAASESYAFDWGQGTQVTVSS”, which “polyreactivity (PSR sort gate)” value is on record?
Its value is “high polyreactivity”.

For “QVQLVESGGGLVQAGGSLRISCAASGSIFYRYAMGWYRQAPGKERELVAAIRTRGGTYYADSVKGRFTISRDNAKNTVYLQMNSLKPEDTAVYYCNAVVPGWTAVDYDYWGQGTQVTVSS”, which “polyreactivity (PSR sort gate)” value is on record?
The value was “high polyreactivity”.

For “QVQLVESGGGLVQAGGSLRISCAASGSNFSIYAMGWYRQAPGKERELVATNYADSVKGRFTISRDNAKNTVYLQMNSLKPEDTAVDYCAADDLSYFWGDVPGDYWGQGTQVTVSS”, which “polyreactivity (PSR sort gate)” value is on record?
Its value is “low polyreactivity”.

With “QVQLVESGGGLVQAGGSLRISCAASGSTFDNYAMGSYRHAPGKERELVAVITQSGGITFYADSVKGRFTISRDNSKNTVYLQMNSLKPEDSAVYYCNVELDRSWYYYWGQGTQVTVSS” as the sequence, how does the “polyreactivity (PSR sort gate)” value read?
The value was “low polyreactivity”.

For “QVQLVESGGGLVQAGGSLRISCAASGSTFDYNAMGWDRQAPGKERELVAVISQSGTRTYYADSVKGRFTISRDNAKNTVYLQMNSLKPEDTAVYYCAARSPYSYRYDYWGQGTQVTVSS”, which “polyreactivity (PSR sort gate)” value is on record?
Its value is “high polyreactivity”.

For “QVQLVESGGGLVQAGGSLRISCAASGSTFGDYTMGWYRQAHGKERELVAAITLTGGSTFYADSVKGRFTISRDNAKNTVYLQMNSLKPVDTAVYYCNTDVIRWVGGTWHRYYYWGQGTQVTVSS”, which “polyreactivity (PSR sort gate)” value is on record?
The value was “low polyreactivity”.

Which “polyreactivity (PSR sort gate)” value does the source give for “QVQLVESGGGLVQAGGSLRISCAASGSTFGSYTMGWYRQAPGKERELVAAIRGGGSTYYADSVKGRFTISRDNAKNTVYLQMNSLKPEDTAVYYCAALSPRRYNPRYGFDYCGQGTQVTVSS” here?
Its value is “high polyreactivity”.

Which “polyreactivity (PSR sort gate)” value does the source give for “QVQLVESGGGLVQAGGSLRISCAASGSTFGYNDMGWYRQAPGKERELVAAIDTGVSTNYADSVKGRFTISRDNAKNTVYLQMNSLKPEDTAVYYCAKSGSAYWHSGWSVGFDYWGQGTQVTVSS” here?
Its value is “low polyreactivity”.

Which “polyreactivity (PSR sort gate)” value does the source give for “QVQLVESGGGLVQAGGSLRISCAASGSTFGYNGMGWYRQAPGKERELVAAISGGARTYADSVKGRFTISRDNAKNTVYLLMNSLKPEDTAVYYCAADSPVSVTADDVFWGQGTQVTVSS” here?
The value was “low polyreactivity”.

For “QVQLVESGGGLVQAGGSLRISCAASGSTFQGNAMGWSRHAPGKERELVAAISRSGGSTYADSVKGRFTISRDNAKNTVYLQMNSLKPEDTAVYYCSADAPFDRPYNYWGQGTQVTVSS”, which “polyreactivity (PSR sort gate)” value is on record?
The value was “low polyreactivity”.

For “QVQLVESGGGLVQAGGSLRISCAASGSTFRWYAMGWYRQAPGKEREFVAAITWSGGRTYYADSVKGRFTISRDNAKNTVYLQMNSLKPEDTAVYYGNADDYGDSFNYWGQGTQVTVSS”, which “polyreactivity (PSR sort gate)” value is on record?
Its value is “high polyreactivity”.

With “QVQLVESGGGLVQAGGSLRISCAASGSTFSLNAMGWYRQAPGKERELVAAISSRGTSTYYADSVKGRFTISRDNAKNTVYLQMNSLKPVDTAVYYCAAGKPKIPDDDYWGQGTQVTVSS” as the sequence, how does the “polyreactivity (PSR sort gate)” value read?
Its value is “high polyreactivity”.

For “QVQLVESGGGLVQAGGSLRISCAASGSTFTINVMGWYTQAPGKERELVAAINGGGRTNYADSVKGRFTISRDNAKNTVYLQMNSLIPEDSAVYYCAADGLSIVRQMDYWGLGTQVTVSS”, which “polyreactivity (PSR sort gate)” value is on record?
Its value is “low polyreactivity”.

Which “polyreactivity (PSR sort gate)” value does the source give for “QVQLVESGGGLVQAGGSLRISCAASGSTFWYYSMGWYRQAPGKERELVAAITRGGNTNYADSVKGRFTISRDNAKNTVYLQMNSLKPEDTAVYYCNADYKLADYREYNVYSFDYWGQGTQVTVSS” here?
Its value is “low polyreactivity”.

For “QVQLVESGGGLVQAGGSLRISCAASGSTSTGMTWDGIDRRLGRKELVAGIRSAGSTNYADSVKGRFTISRDNAKNTVYLQMNSLKPEDTAGYYCAKDYRWVWRKYGYWGQGTQVTLSS”, which “polyreactivity (PSR sort gate)” value is on record?
The value was “low polyreactivity”.

With “QVQLVESGGGLVQAGGSLRISCAASGSTYYNAMGWYRQAPGKERELVAAFRFRSGSTYYADSVKGRFTISRDNAKNTVYLQMNSLKPEDTAVYYCAADYKRSWRYAYNYWGQGTQVTVSS” as the sequence, how does the “polyreactivity (PSR sort gate)” value read?
The value was “high polyreactivity”.

With “QVQLVESGGGLVQAGGSLRISCAASGSTYYTNTMGWYRQAPGKERELVADINGSGGSTYYADSVKGRITISRDNAKNTVYLQMNSLKPEDTAVYYCAAGSLQVAIRYDYWGQGTQVTVSS” as the sequence, how does the “polyreactivity (PSR sort gate)” value read?
The value was “low polyreactivity”.

With “QVQLVESGGGLVQAGGSLRISCAASGYMFPWYTMGWYRQAPGKERELVAAITSGSSTYYADSVKGRFTISRDNAKNTVYLQMNSLKPEDTAVYYCNAYDDAYRLYRLRGRDYWGQGTQVTVSS” as the sequence, how does the “polyreactivity (PSR sort gate)” value read?
The value was “low polyreactivity”.

For “QVQLVESGGGLVQAGGSLRISCAASGYTFLAYAMGWYRQAPGKERELVAAISRSGVSTYYADSVKGRFTISRDNAKNTVYLQMYSLKTEYTAVYYFNARSGRQLARYGYWGHGTQVTVSS”, which “polyreactivity (PSR sort gate)” value is on record?
Its value is “high polyreactivity”.

Which “polyreactivity (PSR sort gate)” value does the source give for “QVQLVESGGGLVQAGGSLRISCAASRSTFGIYAMGWYRQAPGKERELVAAISFRCGRTYYADSVKGRFTISRDNAKNTVYLQMISLKPEDNAVYYCAATWYWGNAYWGQGTQVTVSS” here?
The value was “low polyreactivity”.

Which “polyreactivity (PSR sort gate)” value does the source give for “QVQLVESGGGLVQAGGSLRISCAASVSTFDINTMGWYRQAPGKEREFVAAITDSDDSTYYADSVKGRFTISRDNAKNTVYLQMNSLKPEDSAVYYCAADRSHAYYRKNRVDYWGQGTQVTVSS” here?
The value was “low polyreactivity”.

Which “polyreactivity (PSR sort gate)” value does the source give for “QVQLVESGGGLVQAGGSLRISCAATGIIFIGYAMGWYRQAPGKERELVAAITRSGVSTYYADSVKGRFTISRDNAKNTVYLQMNSLKPEDTAVYYCAARYFGEKYSHGFDYWGQGTQVTVSS” here?
Its value is “low polyreactivity”.

For “QVQLVESGGGLVQAGGSLRISCADSGSIFHPNAMGWYRQAPGKERELVAAISIGGDTYYADSVKGRFTISRDNAKNTVYLQMNSLKPEDTAVYYCAVTYVGHVYEYYYWGQGTQVTVSS”, which “polyreactivity (PSR sort gate)” value is on record?
The value was “low polyreactivity”.

For “QVQLVESGGGLVQAGGSLRISCAGSGSIFSRNAMGWYSQAPGTERELVAAITGSGSSTYYADSVKGRFTISRDNAKNTVYLQMNSLKPEDTAGYYCNAARVYLSEWGQGTQGTVSS”, which “polyreactivity (PSR sort gate)” value is on record?
Its value is “high polyreactivity”.

For “QVQLVESGGGLVQAGGSLRISCASSGRTFWGNAKGRYRQAPGKERELVAGITKSGGTTYADSVKGRFTISRDNAKKTVYLQMNSLKPEDTAVYYCNAVRWQKGDYWGQGTQVTVSS”, which “polyreactivity (PSR sort gate)” value is on record?
Its value is “high polyreactivity”.

Which “polyreactivity (PSR sort gate)” value does the source give for “QVQLVESGGGLVQAGGSLRISCASSGSIFYLNAMGWYRQAPGKERELVAAISRRGGTTSYADSVKGRFTISRDNAKNTVFLQMNSLKPEDTAVYYCAKRTKPSKNYYYWGQGTQVTVSS” here?
The value was “high polyreactivity”.

Which “polyreactivity (PSR sort gate)” value does the source give for “QVQLVESGGGLVQAGGSLRISCASSVRILGVYFMGWYRQAPGKERELVAAISGGGRTNYADSVKGRFTISRDNAKNTVYFQMNRLNPEDTAVYYCNAERPYQFYQCIYSWYYYWGQGTQVTVSS” here?
Its value is “low polyreactivity”.

For “QVQLVESGGGLVQAGGSLRISCDASGRTFYWNAMGWYRQAPGKEREFVAAITNTAVSTYYADSVKGRFTISRDNAKNTVYLQMNSLKPEATAVYYCAKSGNAGYRTYLRDYWGQGSQVTVSS”, which “polyreactivity (PSR sort gate)” value is on record?
The value was “low polyreactivity”.

For “QVQLVESGGGLVQAGGSLRISFAASGSTFDIYVMGWYRQAPGKERELVAAISRVGNTSYADSVKGRFTISRDNAKNTVYLQMNSLKPEDKAVYYCAADAPSWYDRQYDYWGKGTQVTVSS”, which “polyreactivity (PSR sort gate)” value is on record?
The value was “low polyreactivity”.

Which “polyreactivity (PSR sort gate)” value does the source give for “QVQLVESGGGLVQAGGSLRISSAASGIIFPWYYMGWYRQAPGKESELVAGITDGGDTTYADSVKWRFTISRDYAMNNVYLEMNRLKPEDTAVYYCAADIGYGYWHFDYLGQGTQVTVSS” here?
The value was “low polyreactivity”.

Which “polyreactivity (PSR sort gate)” value does the source give for “QVQLVESGGGLVQAGGSLRISSAASGSTNYPNAMGWYRQAPGKERELVAVIRWSGGSTYYADSVKGRFTISRDNAKNTVYLQMNSLKPEDTAVYYCNADFYRVAYLRRYSHFDYWGQGTQVTVSS” here?
The value was “high polyreactivity”.

With “QVQLVESGGGLVQAGGSLRITCAASGSIYKSNAMGWYRQAPGKEREFVAAITWSGGSTYYADSVKGRFTISRDNAKNTVDLKMNSLKPEDTAVCYCAATQYRSDGWRYDYWGQGTQVTVSS” as the sequence, how does the “polyreactivity (PSR sort gate)” value read?
The value was “high polyreactivity”.

With “QVQLVESGGGLVQAGGSLRITCAASGYTFGAYSMGWYRQAPWKERELVAAITVRAGRTYYADSVKGRFTISRDNAKNTVYLQMNSLKPEDTAVYYCAADGYLLYVQHPNGRRYDYWGQGTQVTVSS” as the sequence, how does the “polyreactivity (PSR sort gate)” value read?
The value was “low polyreactivity”.

Which “polyreactivity (PSR sort gate)” value does the source give for “QVQLVESGGGLVQAGGSLRITCAGSGRTFFGYAMGWYRQAPGKERELVAAITRGGSTNYADSVKGRFTISLDNGKNTLYLQMNSLKPEDSAVYYCAVGVPTTFKNRRYFRMDYWGQGTQGTVSS” here?
The value was “high polyreactivity”.

Which “polyreactivity (PSR sort gate)” value does the source give for “QVQLVESGGGLVQAGGSLRLICAASGATFVDYTMGWYRQAPGKERELVAAITVSAGSTYYADSVKGRFTISRDNAKNTVYLQMNSLKPEDTAVYYCAKATSSFYHYRYDYWGQGTQVTVSS” here?
The value was “low polyreactivity”.

For “QVQLVESGGGLVQAGGSLRLICAASGFIFGLNAIGWYRQAPGKERELVAAIRSASSTNYADSVKGRFTISRDNAKNTVYLQMNSLKPEDTAVYYCAAEDFTRQFEYWGQGTQVTVSS”, which “polyreactivity (PSR sort gate)” value is on record?
Its value is “low polyreactivity”.

With “QVQLVESGGGLVQAGGSLRLICAASGFIFHSYAMGWYRQAPGKERELVARITIGDSTKYADSVKGRFTISRDNAKNTVYLQMNSLKPEDTAVYYCAADGWRYIAYYQGFRRMNYWGQGTQVTVSS” as the sequence, how does the “polyreactivity (PSR sort gate)” value read?
Its value is “high polyreactivity”.

Which “polyreactivity (PSR sort gate)” value does the source give for “QVQLVESGGGLVQAGGSLRLICAASGFIFKGYAMGWNRQAPGKERELVAAISSSGTSTYYADSVKGRFTISRDNAKNTVYLQMNSLKPEDTAVYYCAADLASYAYRYDFWGQGTQVTVSS” here?
The value was “high polyreactivity”.

For “QVQLVESGGGLVQAGGSLRLICAASGFIFNKNAMGWYRQAPGKERELVAAISQIGGTTYYADSVKGRFTISRVNAKNTVYLQMNSLKPEDTSVYYCAASRRVQSDYWGQGTQVTVSS”, which “polyreactivity (PSR sort gate)” value is on record?
The value was “high polyreactivity”.

For “QVQLVESGGGLVQAGGSLRLICAASGFIFPQNAMGWYRQAPGKERELLAAISKRGGSTYYADSVKGRFTISRDYAKNTVYLQMNSLKPEDTAVYYCAAGYRTRRGLGYYYWGQGTQVTVSS”, which “polyreactivity (PSR sort gate)” value is on record?
Its value is “high polyreactivity”.
